The values below come from PMC11236828 (Bioresources and Bioprocessing, 2024).

Data set [1] deals with T1, Formate oxidase (FOx) (Aspergillus oryzae, UniProt Q2UD26).
T1 construct: gene AO090012000349; synthetic gene in pET28a(+) (NdeI-HindIII), expressed in E. coli BL21(DE3), purified on Ni-Sepharose; His tag cleavage not mentioned; contains FAD / 8-formyl FAD
T1 sequence (Q2UD26 2-578): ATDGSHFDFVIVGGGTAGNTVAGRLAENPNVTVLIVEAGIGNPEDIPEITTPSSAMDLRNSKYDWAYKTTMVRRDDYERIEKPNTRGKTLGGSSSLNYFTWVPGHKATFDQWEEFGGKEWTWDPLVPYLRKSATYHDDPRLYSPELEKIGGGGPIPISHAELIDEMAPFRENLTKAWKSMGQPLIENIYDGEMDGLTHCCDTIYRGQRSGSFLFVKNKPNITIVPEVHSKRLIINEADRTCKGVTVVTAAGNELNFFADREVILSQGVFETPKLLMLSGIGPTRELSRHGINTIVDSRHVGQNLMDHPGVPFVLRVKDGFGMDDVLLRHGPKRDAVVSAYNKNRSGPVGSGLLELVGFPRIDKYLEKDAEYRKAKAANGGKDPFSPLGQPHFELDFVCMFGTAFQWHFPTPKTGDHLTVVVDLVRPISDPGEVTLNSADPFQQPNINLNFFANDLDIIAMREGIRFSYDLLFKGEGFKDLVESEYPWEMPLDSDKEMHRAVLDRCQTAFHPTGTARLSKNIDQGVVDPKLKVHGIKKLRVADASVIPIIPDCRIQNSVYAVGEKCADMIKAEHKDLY
Description: UV-visible absorption spectra of purified enzyme. The data set is classed as binding. Conditions: 4 °C.

Substrate in data set [2]: O=CO
The data set is described as follows: purified protein. Conditions: 50 mM sodium acetate pH 5.0, 25 °C, air oxygen, enzyme 14 h after purification (8-formyl FAD formed).

On to `Cc1cc2nc3c(=O)[nH]c(=O)nc-3n(C[C@H](O)[C@H](O)[C@H](O)COP(=O)(O)OP(=O)(O)OC[C@H]3O[C@@H](n4cnc5c(N)ncnc54)[C@H](O)[C@@H]3O)c2cc1C=O` [8-formyl FAD], for which the “UV-visible absorption spectra of purified enzyme” value in data set [1] (formed in situ from bound FAD, 14 h) is “conversion of FAD to 8-formyl FAD within the active site of FOx”.
As for `Cc1cc2nc3c(=O)[nH]c(=O)nc-3n(C[C@H](O)[C@H](O)[C@H](O)COP(=O)(O)OP(=O)(O)OC[C@H]3O[C@@H](n4cnc5c(N)ncnc54)[C@H](O)[C@@H]3O)c2cc1C` [FAD], the “UV-visible absorption spectra of purified enzyme” value in data set [1] (copurified cofactor, autocatalytically converted to 8-formyl FAD) is “conversion of FAD to 8-formyl FAD within the active site of FOx”.

B1: Formate oxidase (FOx) (Aspergillus oryzae RIB40) (protein)
chain: T1 sequence (Q2UD26 2-578)
Turning to B1, in data set [2], the Km turned out to be 96 ± 3.1 mM, the kcat is 102 s⁻¹ and the kcat/Km was 1100 M⁻¹ s⁻¹.
